Experimental data taken from the nanobody polyreactivity screen of Harvey et al. (2022).

Assay: yeast display, Sf9 membrane polyspecificity reagent, FACS + sequencing; frameworks hold sequencing errors
How it was run: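 Sorting gates, low and high (top ~1%), were placed on anti-HA fluorescence to track expression and on streptavidin fluorescence to track reagent binding. A clone's polyreactivity label is taken from the gate it came out of. The reagent was 10% biotinylated, detergent-solubilized Sf9 membrane, applied for 1 hour at 4 °C to galactose-induced yeast display cells.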

Sequence | polyreactivity (PSR sort gate)
QVQIVESGGGLVQEGGSLRLSCAASGRIFEPYDMGLYRQSPGKERELVAALRCSGGSTYYADSVKGRFTISRDNAKNTVYLQMNSLKPEDTAVYYCAKDAFGWGRVYYYRSGYWGQGTQVTVSS | high polyreactivity
QVQLVESGGGLVQAGGSLRLSCAASGRTFSRYAMGWYRQAPGKERELVASMTRRGGRTYYADSVKGRFTISRDNAKNTVYFQMTSLKPEDTAGYYCNATSQIPWSSYYYWGQGTQVTVSS | high polyreactivity
QVQLVESGGGLVQAGGSLRLSCAASGSIFSSNAMGWYRQAPGKERELVAAISSSGSRTYYADSVKGRFTISRDNAKNTVYLQMNSLKPEDTAVYYCAAVIRYTRSYDYWGQGTQVTVSS | high polyreactivity
QVQLVESGGGLVQAGGSLRLSCAASGITFRYYAKGWYRQAPGKERELVAAISRAGSTNYADSVKGRFTISRDNAKNTVYLQMNSLKPVDTAVYSCNARRRSTNAVSYRYITPYDYWGQGTQVTVSS | high polyreactivity
QVQLVESGGGLVQAGGSLRLSCAASGSNFGDNPMGWYRQAPGKERELVAAISSSGDSTYYADSVKGRFTISRDNAKNTVYLQMNSLKPEDTAVYYCADDRGSTAGSVTYTPGNYWGQGTQVTVSS | low polyreactivity
QVHLVESGGGLVQAGGSLRLSCAASGSIFTGYAMGWYRQAPGKERELVAGISWGGTSTYYADSVKGRFTISRDNAKNTVYLQMNSLKPEDTAVYYCAAKPYYFYGMDYWGQGTQVTVSS | high polyreactivity
QVQLVESGGGLVQAGGSLRLSCAASGRTFSRNAMGWYRQAPGKERELVAAITYSGGTTYYADSVKGRFTISRDNAKNTVYLQMNSLKPEDTAVYYCATPSRKSGVGYPSYNYWGQGTQVTVSS | high polyreactivity
QVQLVESGGGLVQAGGSLRLSCAASGRIFYKYAMGWYRQAPGKERELVAAISTGGTRTYYADSVKGRFTISRDNAKNTVYLQMNSLKPEDTAVYYCAARGGDKTYYYWGQGTQVTVSS | high polyreactivity
QVQLVESGGGLVQAGGSLRLSCAASGGIFGYYTMGWYRQAPGKERELVAVITRSGGSTYYADSVKGRFTISRDNAKNTVYLQMNSLKPEDTAVYYCASGWRGGRYRYFAYDYWGQGTQVTVSS | high polyreactivity
QVQLVESGGGLVQAGGSLRLSCAASARIFSQNAMGWYRQAPGKERELVAVISWSGVSTSYSDSVKGRFTISRDNAKNTVYLQMNSLKPEDTAVYYCAARRFYYYSRYPGYNSWGQGTLVTVSS | high polyreactivity
QVQLVESGGGLVQAGGSLRLSCAASGITFIKNAMGWYRQAPGKERELVAAISRSGGRTYYADSVKGRFTISRDNAKNTVYLQMNSLKPEYTAVYYCAAVTQRSYIYDYWGQGTQVTVSS | high polyreactivity
QVQLVESGGGLVQAGGSLRLSCAASGRTFFWYAMGWYRQAPGKERELVAGISRGGRTNYADSVKGRFTISRDNAKNTVYLQMNSLKPEDTAVYYCAADSWLTYFLGTSEHYYWGQGTQVTVSS | high polyreactivity
QVQLVESGGGLVQAGGSLRLSCAASGRTFRLYAMGWYRQAPGKERELVAAITRGGRTNYADSVKGRFTISRDNAKNTVYLQMNSLNPEDTAVYYCAARYVERHTDYYYWGQGTQVTVSS | low polyreactivity
QVQLVESGGGLFQAGGSLRLSCAASGFTFRTYAMGWYRQAPGKERELVATIRRAGSTNYADSVKGRFTISRDNAKNTVYLQMNRLKPEDTAVYYCNAGFSHRSDNGIDGYYWGPGTQVTVSS | high polyreactivity
QVQLVESGGRLVQAGGSLRLRCAASGRTFVTNAMGWYRQAPGQERELVAAISGSGGSTYYADSVKGRFTISRDNAKNTFYLQMNSLKPEDTAVYDCATSYSLGYVRYGYWGQGSQVTVSS | high polyreactivity
QVQLQESGGGLLQAGGSLRLSCAASGTIFRFRYMGWHRQAPGKERELVAGINGGTTTYYADSVIGRFTISRDNAKNTVYLQMNSLKPDDTAVYNCAAGASRLTYYDYWGQGTQVTVSS | low polyreactivity
QVQLVESGGGLVQAGGSLRLSCAASGFTFWPNAMGWYRQAPGKERELVAAINWSGGSTYYADSVKGRFTISRDNAKNSVYLQMNSLKPEDTAVYYCNADPYLLEHDYWGQGTQVSVSS | low polyreactivity
QVQLVESGGGLVQAGGSLRLSCAASGSIFDTYAMGWYRQAPGKERELVAAITQSGDRTYYADSVKGRFTISRDNAKNTVYLQMNSLKPEDTAVYYCYTRRGSAWSCDYWGQGTQVTVSS | low polyreactivity
QVQLVESGGGLVQAGGSLRLSGAASGRIFVRNSMGWYRQAPGKERELVAAISSNGGSTRYADSVKGRFTISRDNAKNTVYLQMNSQKPEDTAVYYCNAYYSHSPRYLKYDYWGQGTQVTVSS | high polyreactivity
QDQHVESGGGLVQAGGSLRLSCAASGGIFYTYTMGWYRQAPGKEREFVAAITRSGDRTYYADSVKGRFTISRDNAKNTGYLQMNSLKPEDTAVYYCNTVTRKNPSGLALDEYNYCGQGTQVTVSS | high polyreactivity
QVQLVESGGGLVQAGGSLRLSCAASGFILSPNTMGWYRPAPGKERELVAAISTDVSTYADSVKGRFTISRDNAKNTVYFQMNSLKPEDTAVYYCNADDFGYASYEYWGQGTQVTVSS | low polyreactivity
QVQLVESGGGLVQAGGSLRLSCAASGITIAGYAMGWYRQAPGKERELVAAISSRGSSTRYADSVKGRFTISRDNAKNTVYLQMNSLKPEDSAVYYCAARNEYWGQGTQVTVSS | high polyreactivity

Sequence | polyreactivity (PSR sort gate)
QVHLVESGGGLVQAGGSLRLNCAASGRTFTEYAMGWYTPAPGKERELVAAITTVGSTYYADSVKGRFTISRDNAKNTVDIQMNSQKPEDTAVYYCDVERDYWTKASYYWGQGTQVTVSS | low polyreactivity
QVQVVESGGGLVQAGGSLRLSCAPSGRTFYGNVMGWYRQAPGKERELVAAISSRGSSTRYADSVKGRFTISRDNAKNTVYLQMNRLKPEDTAVYYCAARNEYWGQGTQVTVSS | high polyreactivity
QVQLVESGGVLVQAGGSLRLSCAASGSTFGKNTMGWYRQAPGKERELVAAISRGVSTYYAYSVKGRFTISRDNATNTFYLQMNSLKPEDTALYYCAAQEAYRWYGFDFWGQGTQVTVLS | high polyreactivity
QVQLVESGGGLVQAGGSLRLSCAASGFTFWRYAMGWYRQAPGKDRELVAAISSSGGSTYYADSVKGRFTISRDNAKNTVYLQMNSLKPEVTAVYYCATSVRFVRGWGYSYRGYDYWGQGTQVTVSS | high polyreactivity
QVHLVESGGGLVQAGGSLRLSCAASGITFNSNAMGWYRQAPGKERELVAAITVSGGNTYYADSVKGRFTISRDNAKNTVYLQMYSLKPEDTAVYYCNTASDVSWYVHYYYWRQGTQVTVSS | low polyreactivity
QVQLVESGGGLVQAGGSLRLSCAASGRTFRYYAMGWYRQAPGKERELVAAIRRGGSTTYADSVKVRFTISRDNAKNTVYLQMNSLKPEDTAVYYCAARYPGTRGDGYWGQGTQVTVSS | high polyreactivity
QVQLQESGGGLVQAGGSLRLSCAASGYISHADEMGWYRQAPGKEHELVASISNGGSTNYADSVKGRFTISRDNAKNTVYLQMNSLKSELTAVYYCAAWTGQVDIHYYWGQGTQVTVSS | low polyreactivity
QVQLVESGGGLVQAGGSLRLSCAGSGRTFVYYAMGWYRQAPGREREFVAAISRSGGRTSYADSVKGRFTISRDNAKNTVYLHMNSLKPEDTAVNYCAAEKRTQPTSREYYWGQGTQVTVSS | high polyreactivity
QVQLVESGGGLVQAGGSLRLSCAASGSIFGFYAMGWYRQAPWKERELVAAINSNSGSTYYADSVKGRFTISRDNAKNTVYLQMNSLKPEDTAVYYCAARSPYVTPQGFNYCGQGTQVTVSS | high polyreactivity
QVQLVESGGGLVQAGGSLRLSCAASGFTFYHNAMGWYRQAPGKERELVAAISSSGDSTYYADSVKGRFTIARDNAKNTVYLQMNSLKPEDTAVYYCNDYFYYLSQYYYYWFNYDYWGQGTQVTVSS | low polyreactivity
QVQLVESGGGLVQAGGSLRLSCAASGSIIWLYAMGWYRQAPGKERELVAAISSGGSTYYADSVKGRFTISRDNAKNTVYLQMNSLKPEDTAVYYCNVDYWQPWQYDYWGQGTQVTVSS | high polyreactivity
QVQLVESGGGLVQAGGSLRLSCAASGSISGVYAMGWYRQAPGKERELVAAISRSGGSTYYADSVKGRFTISRDNAKNTVYLQMNSLKPEDTAVYYCAAEYTYYSYGGNYDYWGQGTQVTVSS | low polyreactivity
QVQLVESGGGLVQAGGSLRLSCAASGRIFAYYVMGWYRQGPGKERELVASISSGGGTYYADSVKGRFTISRDNAKNTVYLQMNSLKPEDTAVYYCAARWRRYVYPDGHLFWYDYWGQGTQVTVSS | high polyreactivity
QDQLVESGGGLVQAGGSLRLSCAASGSTFPYNVMGWYRQAPGKEREFVAAISSSSGSTYYADSVKGRFTISRDNAKNTVYLQLNSLKPEDTAVYYCARRHPRQRQDGKVDYWGQGTQVTVSS | low polyreactivity
QVQLVESGGGLVQAGCSLRLSCAASGRIFRRYAMGWYRQAPGKERELVAAITSGGGSTYYADSVKGRFTISRDNAKNTVYLQMNSLKPEDTAVYYCNKSSWEFVKGKYGYWGQGTQVTVSS | low polyreactivity
QFQLVESGGGLVQAGGSLRLSCAASGLIFTANAMGWYRQAPGKERELVASITWSGDSTYYADSVKGRFTISRDNAKNTVYLQMNSLKPEDSAVYYCNARPVYTYVTYDGNYWGQGTQVTVSS | low polyreactivity
QVQLVESGGGLVQAGGSLRLSCAASGLTFDANAMGWYIQAPGKEREFVAVISWSDGGTYYADSVKGRFTISRDNAKNTVYLQLNSLKPEDTAVYYCNADFYYVYGNTRRYRYFEMEYWGQGTQVTVSS | low polyreactivity
QVQLVESGGGLVQAGGSHRLSSAASGGIFGKYAMGWYRQAPGKEMDLVAAITWNGGRTYYADSVKGRFTISRDNAKYTLYLQMNSLKPVDTAVHFCAVDDAYPDRYDYWGQGSQVTVSS | high polyreactivity
QGQLVVSGGGLVQAGGSLRLSCAASGRTFYWNAMGWSIQAPGKERELFASINGGGSTYYADSVKGRFTISRDNAKNTVYLQMYSLKPEDTAVYYCNAESYEFHRAWGDYDDWGHGTQVTVSS | low polyreactivity
QVQLVESGGGLVQAGGSLRLSCAASGRIFVVNAMGWYRQAPGKERELVAAITRRGGSTYADSVKGRFTISRDNAKNTVYLQMNSLKPEDTAVYYCNAESYSGIFSYKYDYWGQGTQVTVSS | high polyreactivity
QVQLVESGGGLVQAGGSLRLSCAASGGIFGGYAMGWYRQAPRKERELVATITSGTSTNYADSVKGRFTISRDNAKNTVYLQMNSLKPEDTAVYYCNAGGVYPRFTFLEQGYEMEYWGQGTQVTVSS | low polyreactivity
